Values joined by “and” are separate entries in the source; they are usually repeats but may differ in a detail not shown here. Equal values may be shown once. Ends that are not written are not given here.

A word on the stoichiometry N: it is the number of molecules, sites or subunits per partner or assembly.

Series [1] addresses TM24 peptide expressed as a EYFP fusion in COS cells. Put plainly: FRAP; TM24 as EYFP fusion in live COS-7 cells, 37 °C; diffusion rate compared with membrane proteins of known number of TM domains.
Series [2] deals with the molecule itself. Put plainly: native gel or EMSA; plasma membranes of L_(CX3CL1) solubilised with CALX173ACE, CX3CL1 immuno-purified on anti-CX3CL1 beads, eluted by pH shock; clear native PAGE 4-15%, 4 °C, Western blot. A general note: A gel shift assay detects complexes by their altered migration in electrophoresis.
Series [3] concerns the molecule itself. In words: single-molecule photobleaching TIRF; L_(CX3CL1) membrane preparation diluted in excess DOPC, spread on a coverslip; stepwise bleaching of EYFP, 126 particles.
Series [4] deals with the molecule itself. In words: native gel or EMSA; L_(CX3CL1) cell lysate (40 µg total protein) solubilised in 1% DDM, NativePAGE Novex Bis Tris 3-12% gel, Western blot with anti-CX3CL1.
Series [5] concerns the molecule itself. Put plainly: SDS-PAGE without cross-linker; 0.4 mg/ml peptide in DPC micelles, no BS3; SDS-PAGE, silver stain.
Series [6] concerns the molecule itself. Put plainly: FRAP; FITC peptides in giant unilamellar vesicles of EggPC, 1000 lipids per peptide, PBS; lateral diffusion rate.

Turning to “TM24 peptide expressed as a EYFP fusion in COS cells (domain or fragment)”, in series [1], the stoichiometry N was 7.

B1: CX3CL1-EYFP fusion protein (L929 cells stably expressing CX3CL1-YFP) (natural protein, UniProt P78423 25-397, looked up)
chain: QHHGVTKCNITCSKMTSKIPVALLIHYQQNQASCGKRAIILETRQHRLFCADPKEQWVKDAMQHLDRQAAALTRNGGTFEKQIGEVKPRTTPAAGGMDESVVLEPEATGESSSLEPTPSSQEAQRALGTSPELPTGVTGSSGTRLPPTPKAQDGGPVGTELFRVPPVSTAATWQSSAPHQPGPSLWAEAKTSEAPSTQDPSTQASTASSPAPEENAPSEGQRVWGQGQSPRPENSLEREEMGPVPAHTDAFQDWGPGSMAHVSVVPVSSEGTPSREPVASGSWTPKAEEPIHATMDPQRLGVLITPVPDAQAATRRQAVGLLAFLGLLFCLGVAMFTYQSLQGCPRKMAGEMAEGLRYIPRSCGSNSYVLVPV
For B1, the “stoichiometry N” value in series [2] was 5; in series [3] it was 4.3 and 3 to 7 (2×); in series [4], roughly 3.

B2: TM24 peptide (transmembrane domain of CX3CL1 with two lysines at each end) (peptide)
peptide: KKVGLLAFLGLLFCLGVAMFTYKK
notes: two lysines added to ensure solubility; the 20 residues of the TM domain of CX3CL1; also called TM-CX3CL1 peptide; CX3CL1 transmembrane peptide; source: synthetic peptide
As for B2, the “stoichiometry N” value in series [5] came to 2.

B3: TM24-FITC (peptide)
peptide: KKVGLLAFLGLLFCLGVAMFTYKK
modifications: also: FITC, position not given here
notes: two lysines added to ensure solubility; the 20 residues of the TM domain of CX3CL1; also called TM24 conjugated with fluorescein; source: synthetic peptide
With B3, in series [6], the binding result was “binds”.

Values taken from article PMC7271195, “CX3CL1 homo-oligomerization drives cell-to-cell adherence” (Scientific Reports, 2020).
